According to the supplement of paper PMC9112550, “Optimization of the antimicrobial peptide Bac7 by deep mutational scanning” (BMC Biology, 2022):

System: Escherichia coli TOP10
Assay: shrunken log2 fold change of peptide-encoding DNA abundance (4.5 h post-induction vs induction); higher = less antimicrobial activity (less host growth inhibition)
Conditions: time post-induction: 4.5 h; library: site-saturation at positions 5, 18, 19, 20
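Also: peptides expressed intracellularly from a pBAD plasmid library in pooled LB shake-flask culture, induced with 0.3% L-arabinose, DNA abundance read by NGS, three biological replicates, DESeq2 with apeglm shrinkage.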

| Sequence | shrunken log2 fold change |
| --- | --- |
| RRIRWRPPRLPRPRPRPEQGPRP | -0.00277 |
| RRIRWRPPRLPRPRPRPEQRPRP | 0.248 |
| RRIRWRPPRLPRPRPRPERDPRP | 0.128 |
| RRIRWRPPRLPRPRPRPERYPRP | 0.142 |
| RRIRWRPPRLPRPRPRPESDPRP | 0.59 |
| RRIRWRPPRLPRPRPRPESMPRP | 0.636 |
| RRIRWRPPRLPRPRPRPEWIPRP | 0.475 |
| RRIRWRPPRLPRPRPRPEYCPRP | 1.23 |
| RRIRWRPPRLPRPRPRPFAMPRP | -0.148 |
| RRIRWRPPRLPRPRPRPFANPRP | -0.0747 |
| RRIRWRPPRLPRPRPRPFCVPRP | -0.0188 |
| RRIRWRPPRLPRPRPRPFDKPRP | -0.012 |
| RRIRWRPPRLPRPRPRPFEDPRP | 0.104 |
| RRIRWRPPRLPRPRPRPFEIPRP | 0.0217 |
| RRIRWRPPRLPRPRPRPFEMPRP | -0.116 |
| RRIRWRPPRLPRPRPRPFETPRP | 0.0441 |
| RRIRWRPPRLPRPRPRPFFTPRP | -0.0367 |
| RRIRWRPPRLPRPRPRPFGDPRP | -0.249 |
| RRIRWRPPRLPRPRPRPFGWPRP | 0.118 |
| RRIRWRPPRLPRPRPRPFKVPRP | 0.00438 |
| RRIRWRPPRLPRPRPRPFKWPRP | -0.223 |
| RRIRWRPPRLPRPRPRPFLDPRP | -0.233 |
| RRIRWRPPRLPRPRPRPFLLPRP | -0.0846 |
| RRIRWRPPRLPRPRPRPFMIPRP | -0.798 |
| RRIRWRPPRLPRPRPRPFMTPRP | 0.183 |

| Sequence | shrunken log2 fold change |
| --- | --- |
| RRIRWRPPRLPRPRPRPFNAPRP | -0.342 |
| RRIRWRPPRLPRPRPRPFNEPRP | -0.69 |
| RRIRWRPPRLPRPRPRPFNLPRP | 0.0233 |
| RRIRWRPPRLPRPRPRPFPIPRP | -0.169 |
| RRIRWRPPRLPRPRPRPFSFPRP | -0.067 |
| RRIRWRPPRLPRPRPRPFTTPRP | -0.0833 |
| RRIRWRPPRLPRPRPRPFVDPRP | 0.0365 |
| RRIRWRPPRLPRPRPRPFWPPRP | 0.161 |
| RRIRWRPPRLPRPRPRPFWSPRP | 0.284 |
| RRIRWRPPRLPRPRPRPFWVPRP | 0.00637 |
| RRIRWRPPRLPRPRPRPFWWPRP | 0.402 |
| RRIRWRPPRLPRPRPRPFYPPRP | -0.239 |
| RRIRWRPPRLPRPRPRPGACPRP | 0.188 |
| RRIRWRPPRLPRPRPRPGAIPRP | -0.096 |
| RRIRWRPPRLPRPRPRPGCGPRP | 0.784 |
| RRIRWRPPRLPRPRPRPGDFPRP | 0.564 |
| RRIRWRPPRLPRPRPRPGDLPRP | 0.0106 |
| RRIRWRPPRLPRPRPRPGDWPRP | 0.655 |
| RRIRWRPPRLPRPRPRPGFCPRP | 0.524 |
| RRIRWRPPRLPRPRPRPGHLPRP | 0.0651 |
| RRIRWRPPRLPRPRPRPGHQPRP | -0.0269 |
| RRIRWRPPRLPRPRPRPGIAPRP | 0.411 |
| RRIRWRPPRLPRPRPRPGKAPRP | 0.0616 |
| RRIRWRPPRLPRPRPRPGKKPRP | 0.375 |
| RRIRWRPPRLPRPRPRPGLKPRP | -0.109 |

| Sequence | shrunken log2 fold change |
| --- | --- |
| RRIRWRPPRLPRPRPRPGNRPRP | -0.00977 |
| RRIRWRPPRLPRPRPRPGPAPRP | 1.65 |
| RRIRWRPPRLPRPRPRPGPNPRP | 0.194 |
| RRIRWRPPRLPRPRPRPGQVPRP | -0.0635 |
| RRIRWRPPRLPRPRPRPGRGPRP | 0.643 |
| RRIRWRPPRLPRPRPRPGRSPRP | 0.0808 |
| RRIRWRPPRLPRPRPRPGSAPRP | 0.432 |
| RRIRWRPPRLPRPRPRPGSFPRP | 0.0155 |
| RRIRWRPPRLPRPRPRPGTGPRP | 0.188 |
| RRIRWRPPRLPRPRPRPGVSPRP | 0.34 |
| RRIRWRPPRLPRPRPRPGYFPRP | -0.152 |
| RRIRWRPPRLPRPRPRPHAEPRP | 0.0375 |
| RRIRWRPPRLPRPRPRPHAIPRP | -0.124 |
| RRIRWRPPRLPRPRPRPHARPRP | 0.516 |
| RRIRWRPPRLPRPRPRPHCEPRP | -0.262 |
| RRIRWRPPRLPRPRPRPHCTPRP | -0.401 |
| RRIRWRPPRLPRPRPRPHDAPRP | -0.145 |
| RRIRWRPPRLPRPRPRPHEIPRP | 0.0984 |
| RRIRWRPPRLPRPRPRPHFCPRP | -0.0299 |
| RRIRWRPPRLPRPRPRPHICPRP | 0.00277 |
| RRIRWRPPRLPRPRPRPHKGPRP | -0.185 |
| RRIRWRPPRLPRPRPRPHKQPRP | -0.0365 |
| RRIRWRPPRLPRPRPRPHKWPRP | 0.18 |
| RRIRWRPPRLPRPRPRPHLHPRP | -0.043 |
| RRIRWRPPRLPRPRPRPHLPPRP | -0.166 |

| Sequence | shrunken log2 fold change |
| --- | --- |
| RRIRWRPPRLPRPRPRPHMLPRP | -0.954 |
| RRIRWRPPRLPRPRPRPHMVPRP | -0.069 |
| RRIRWRPPRLPRPRPRPHNAPRP | -0.0847 |
| RRIRWRPPRLPRPRPRPHNYPRP | -0.267 |
| RRIRWRPPRLPRPRPRPHQCPRP | -0.112 |
| RRIRWRPPRLPRPRPRPHQHPRP | -0.214 |
| RRIRWRPPRLPRPRPRPHQVPRP | -0.145 |
| RRIRWRPPRLPRPRPRPHRCPRP | 0.000478 |
| RRIRWRPPRLPRPRPRPHRWPRP | 0.103 |
| RRIRWRPPRLPRPRPRPHWCPRP | -0.062 |
| RRIRWRPPRLPRPRPRPHWSPRP | -0.182 |
| RRIRWRPPRLPRPRPRPIAAPRP | 0.976 |
| RRIRWRPPRLPRPRPRPICGPRP | 0.0975 |
| RRIRWRPPRLPRPRPRPIDMPRP | 0.0712 |
| RRIRWRPPRLPRPRPRPIFVPRP | 0.0493 |
| RRIRWRPPRLPRPRPRPIGTPRP | 0.175 |
| RRIRWRPPRLPRPRPRPIHQPRP | 0.0226 |
| RRIRWRPPRLPRPRPRPIHYPRP | -1.07 |
| RRIRWRPPRLPRPRPRPILYPRP | -0.515 |
| RRIRWRPPRLPRPRPRPIQIPRP | -0.378 |
| RRIRWRPPRLPRPRPRPIQRPRP | 0.0678 |
| RRIRWRPPRLPRPRPRPIQYPRP | -0.101 |
| RRIRWRPPRLPRPRPRPIRHPRP | -0.252 |
| RRIRWRPPRLPRPRPRPISIPRP | -0.234 |
| RRIRWRPPRLPRPRPRPISKPRP | -0.215 |

| Sequence | shrunken log2 fold change |
| --- | --- |
| RRIRWRPPRLPRPRPRPITKPRP | 0.258 |
| RRIRWRPPRLPRPRPRPIWTPRP | 0.107 |
| RRIRWRPPRLPRPRPRPIYFPRP | -0.198 |
| RRIRWRPPRLPRPRPRPIYKPRP | -0.596 |
| RRIRWRPPRLPRPRPRPKAGPRP | 0.538 |
| RRIRWRPPRLPRPRPRPKAIPRP | -0.00613 |
| RRIRWRPPRLPRPRPRPKCAPRP | 0.706 |
| RRIRWRPPRLPRPRPRPKCIPRP | -0.217 |
| RRIRWRPPRLPRPRPRPKCMPRP | 0.531 |
| RRIRWRPPRLPRPRPRPKCNPRP | 0.136 |
| RRIRWRPPRLPRPRPRPKDQPRP | 0.508 |
| RRIRWRPPRLPRPRPRPKDYPRP | 0.0778 |
| RRIRWRPPRLPRPRPRPKEKPRP | 0.0316 |
| RRIRWRPPRLPRPRPRPKETPRP | 0.0203 |
| RRIRWRPPRLPRPRPRPKEWPRP | 0.00353 |
| RRIRWRPPRLPRPRPRPKFEPRP | 0.2 |
| RRIRWRPPRLPRPRPRPKFWPRP | 0.0806 |
| RRIRWRPPRLPRPRPRPKGRPRP | 0.0214 |
| RRIRWRPPRLPRPRPRPKHHPRP | -0.208 |
| RRIRWRPPRLPRPRPRPKHRPRP | 0.149 |
| RRIRWRPPRLPRPRPRPKIPPRP | 0.0948 |
| RRIRWRPPRLPRPRPRPKKCPRP | 0.18 |
| RRIRWRPPRLPRPRPRPKKLPRP | -0.0343 |
| RRIRWRPPRLPRPRPRPKKRPRP | 0.426 |
| RRIRWRPPRLPRPRPRPKKSPRP | 0.395 |

| Sequence | shrunken log2 fold change |
| --- | --- |
| RRIRWRPPRLPRPRPRPKLRPRP | 0.132 |
| RRIRWRPPRLPRPRPRPKMLPRP | 0.149 |
| RRIRWRPPRLPRPRPRPKNYPRP | -0.152 |
| RRIRWRPPRLPRPRPRPKPMPRP | 0.171 |
| RRIRWRPPRLPRPRPRPKQYPRP | -0.266 |
| RRIRWRPPRLPRPRPRPKSMPRP | -0.0141 |
| RRIRWRPPRLPRPRPRPKTLPRP | 0.19 |
| RRIRWRPPRLPRPRPRPKTNPRP | 0.239 |
| RRIRWRPPRLPRPRPRPLAKPRP | 0.499 |
| RRIRWRPPRLPRPRPRPLFHPRP | -0.0933 |
| RRIRWRPPRLPRPRPRPLGMPRP | -0.156 |
| RRIRWRPPRLPRPRPRPLHDPRP | 0.387 |
| RRIRWRPPRLPRPRPRPLKHPRP | -0.623 |
| RRIRWRPPRLPRPRPRPLLEPRP | 0.216 |
| RRIRWRPPRLPRPRPRPLLPPRP | 0.676 |
| RRIRWRPPRLPRPRPRPLMLPRP | -0.0143 |
| RRIRWRPPRLPRPRPRPLNHPRP | -0.176 |
| RRIRWRPPRLPRPRPRPLQMPRP | 0.161 |
| RRIRWRPPRLPRPRPRPLQYPRP | -0.133 |
| RRIRWRPPRLPRPRPRPLRRPRP | 0.587 |
| RRIRWRPPRLPRPRPRPLTAPRP | 0.436 |
| RRIRWRPPRLPRPRPRPLVKPRP | 0.147 |
| RRIRWRPPRLPRPRPRPLVRPRP | 0.151 |
| RRIRWRPPRLPRPRPRPLWCPRP | 0.149 |
| RRIRWRPPRLPRPRPRPLWKPRP | -0.128 |
